Source: patent US20160015831A1 (BIOALLIANCE C V, published 2016)

What was measured:
[1] = biological target: T1, human CD22 (human, UniProt P20273 20-847); assay: flow cytometry, REH cells, unconjugated Ab 3.3 µg/mL
T1 construct: Endogenous CD22 on human cell lines Daudi, Raji, Ramos, RL, REH and NALM-6; no signal peptide limits are stated; also called antigen CD22
Description: (§1) 6×10⁴˜1×10⁵ cells were seeded per well in a v-bottomed 96-well plate and incubated with 100 μl of the unconjugated Abs or the ADCs at titrated concentrations or isotype control antibody human IgG at 10 μg/mL. After 30-60 minutes of incubation at 4° C., cells were washed once with 200 μl FACS buffer (lx PBS containing 1% FBS), stained with 100 μl of 1 μg/ml goat F(ab′)2-anti-human IgG (H+L)-RPE (Southern Biotech, Cat. No. 2043-09) in FACS buffer and then incubated at 4° C. for 30˜60 min Cells were washed once with FACS buffer and analyzed by flow cytometer (BD LSR, BD Life Sciences).
(§2) In general, the site-specific conjugated hLL2-IgG4p ADCs retained antigen reactivity of antibody.

[2] = biological target: T1, human CD22; assay: flow cytometry, Daudi cells, unconjugated Ab 3.3 µg/mL
Description: as §1, §2

[3] = biological target: T1, human CD22; assay: cell-based or functional assay
[4] = biological target: T1, human CD22; assay: flow cytometry, REH cells, Tap18Hr1 conjugate 3.3 µg/mL
Description: as §1, §2

[5] = biological target: T1, human CD22; assay: flow cytometry, Daudi cells, Tap18Hr1 conjugate 3.3 µg/mL
Description: as §1, §2

[6] = biological target: T1, human CD22; assay: flow cytometry, Daudi cells, unconjugated Ab 3.3 µg/mL; remark: listed apart in the source
Description: as §1
The binding ability of hLL2-Cys variants with or without drug conjugation was evaluated in Daudi and REH cancer cells.

Row | Binder | MFI [1] | MFI [2] | MFI [4] | MFI [5] | MFI [6] | % inhibition, WST-1 cytotoxicity, Daudi cells, 1.1 µg/mL [3] [%] | % inhibition, WST-1 cytotoxicity, Daudi cells, 3.3 µg/mL [3] [%] | % inhibition, WST-1 cytotoxicity, NALM-6 cells, 10 ug/ml [3] [%] | % inhibition, WST-1 cytotoxicity, REH cells, 10 ug/ml [3] [%] | % inhibition, WST-1 cytotoxicity, Ramos cells, 1.1 µg/mL [3] [%] | % inhibition, WST-1 cytotoxicity, Ramos cells, 3.3 µg/mL [3] [%]
1 | hLL2-IgG4p (antibody, also called hLL2-IgG4p Ab) heavy: not shown light: DIQLTQSPSSLSASVGDRVTMSCKSSQSVLYSANHKNYLAWYQQKPGKAPKLLIYWASTRESGVPSRFSGSGSGTDFTFTISSLQPEDIATYYCHQYLSSWTFGGGTKLEIKRTVAAPSVFIFPPSDEQLKSGTASVVCLLNNFYPREAKVQWKVDNALQSGNSQESVTEQDSKDSTYSLSSTLTLSKADYEKHKVYACEVTHQGLSSPVTKSFNRGEC | 81 | 792 | – | – | – | – | – | – | – | – | –
2 | hLL2-S442C-IgG4p-Tap18Hr1 (antibody, name in EU numbering, Tap18Hr1 linker-drug (monomethyl dolastatin 10) on the introduced Cys 442 (EU numbering); site-specific conjugation, DAR 1.58-2.01, also called hLL2-S442C-IgG4p Tap18Hr1 conjugate) heavy: not shown light: DIQLTQSPSSLSASVGDRVTMSCKSSQSVLYSANHKNYLAWYQQKPGKAPKLLIYWASTRESGVPSRFSGSGSGTDFTFTISSLQPEDIATYYCHQYLSSWTFGGGTKLEIKRTVAAPSVFIFPPSDEQLKSGTASVVCLLNNFYPREAKVQWKVDNALQSGNSQESVTEQDSKDSTYSLSSTLTLSKADYEKHKVYACEVTHQGLSSPVTKSFNRGEC | – | – | 52 | 481 | – | 65.8 | 70.6 | 28.5 | 21.3 | 86.9 | 88.9
3 | hLL2-T155C-IgG4p (antibody, name in EU numbering, Position is EU numbering) heavy: not shown light: DIQLTQSPSSLSASVGDRVTMSCKSSQSVLYSANHKNYLAWYQQKPGKAPKLLIYWASTRESGVPSRFSGSGSGTDFTFTISSLQPEDIATYYCHQYLSSWTFGGGTKLEIKRTVAAPSVFIFPPSDEQLKSGTASVVCLLNNFYPREAKVQWKVDNALQSGNSQESVTEQDSKDSTYSLSSTLTLSKADYEKHKVYACEVTHQGLSSPVTKSFNRGEC | 79 | 601 | – | – | – | – | – | – | – | – | –
4 | hLL2-T169C-IgG4p (antibody, name in EU numbering, Position is EU numbering) heavy: not shown light: DIQLTQSPSSLSASVGDRVTMSCKSSQSVLYSANHKNYLAWYQQKPGKAPKLLIYWASTRESGVPSRFSGSGSGTDFTFTISSLQPEDIATYYCHQYLSSWTFGGGTKLEIKRTVAAPSVFIFPPSDEQLKSGTASVVCLLNNFYPREAKVQWKVDNALQSGNSQESVTEQDSKDSTYSLSSTLTLSKADYEKHKVYACEVTHQGLSSPVTKSFNRGEC | 74 | 761 | – | – | – | – | – | – | – | – | –
5 | hLL2-IgG1 (antibody, also called hLL2-IgG1 Ab; hLL2-wild type antibody) heavy: not shown light: DIQLTQSPSSLSASVGDRVTMSCKSSQSVLYSANHKNYLAWYQQKPGKAPKLLIYWASTRESGVPSRFSGSGSGTDFTFTISSLQPEDIATYYCHQYLSSWTFGGGTKLEIKRTVAAPSVFIFPPSDEQLKSGTASVVCLLNNFYPREAKVQWKVDNALQSGNSQESVTEQDSKDSTYSLSSTLTLSKADYEKHKVYACEVTHQGLSSPVTKSFNRGEC | 139 | 1390 | – | – | 1440 | – | – | – | – | – | –

More lines, main results first:

Row | MFI [1] | MFI [2] | MFI [4] | MFI [5] | MFI [6] | Binder | % inhibition, WST-1 cytotoxicity, Daudi cells, 1.1 µg/mL [3] [%] | % inhibition, WST-1 cytotoxicity, Daudi cells, 3.3 µg/mL [3] [%] | % inhibition, WST-1 cytotoxicity, NALM-6 cells, 10 ug/ml [3] [%] | % inhibition, WST-1 cytotoxicity, REH cells, 10 ug/ml [3] [%] | % inhibition, WST-1 cytotoxicity, Ramos cells, 1.1 µg/mL [3] [%] | % inhibition, WST-1 cytotoxicity, Ramos cells, 3.3 µg/mL [3] [%]
6 | 70 | 681 | – | – | – | hLL2-S442C-IgG4p (antibody, name in EU numbering, Position is EU numbering) heavy: not shown light: DIQLTQSPSSLSASVGDRVTMSCKSSQSVLYSANHKNYLAWYQQKPGKAPKLLIYWASTRESGVPSRFSGSGSGTDFTFTISSLQPEDIATYYCHQYLSSWTFGGGTKLEIKRTVAAPSVFIFPPSDEQLKSGTASVVCLLNNFYPREAKVQWKVDNALQSGNSQESVTEQDSKDSTYSLSSTLTLSKADYEKHKVYACEVTHQGLSSPVTKSFNRGEC | – | – | – | – | – | –
7 | – | – | 66 | 515 | – | hLL2-T155C-IgG4p-Tap18Hr1 (antibody, name in EU numbering, Tap18Hr1 linker-drug (monomethyl dolastatin 10) on the introduced Cys 155 (EU numbering); site-specific conjugation, DAR 1.58-2.01, also called hLL2-T155C-IgG4p Tap18Hr1 conjugate) heavy: not shown light: DIQLTQSPSSLSASVGDRVTMSCKSSQSVLYSANHKNYLAWYQQKPGKAPKLLIYWASTRESGVPSRFSGSGSGTDFTFTISSLQPEDIATYYCHQYLSSWTFGGGTKLEIKRTVAAPSVFIFPPSDEQLKSGTASVVCLLNNFYPREAKVQWKVDNALQSGNSQESVTEQDSKDSTYSLSSTLTLSKADYEKHKVYACEVTHQGLSSPVTKSFNRGEC | 66.2 | 70.2 | 45.3 | 22.4 | 89.4 | 94.9
8 | – | – | 60 | 625 | – | hLL2-T169C-IgG4p-Tap18Hr1 (antibody, name in EU numbering, Tap18Hr1 linker-drug (monomethyl dolastatin 10) on the introduced Cys 169 (EU numbering); site-specific conjugation, DAR 1.58-2.01, also called hLL2-T169C-IgG4p Tap18Hr1 conjugate) heavy: not shown light: DIQLTQSPSSLSASVGDRVTMSCKSSQSVLYSANHKNYLAWYQQKPGKAPKLLIYWASTRESGVPSRFSGSGSGTDFTFTISSLQPEDIATYYCHQYLSSWTFGGGTKLEIKRTVAAPSVFIFPPSDEQLKSGTASVVCLLNNFYPREAKVQWKVDNALQSGNSQESVTEQDSKDSTYSLSSTLTLSKADYEKHKVYACEVTHQGLSSPVTKSFNRGEC | 67.2 | 70.8 | 68.2 | 42.6 | 89.6 | 93.3
